These are literature values, as cited in article PMC8146069.

What is called pKa is the negative logarithm of the acid dissociation constant.

Series [1] addresses r-hirudin (recombinant hirudin, type 1 or type 2) (UniProt P01050). Description: pH profile of hirudin binding to thrombin (the measured quantity and the assay are not stated in this article).
Another series concerns the target His57 (UniProt position 406, VLTAAHCLLYP). Description: kinetics.
Another series concerns Nterm16. Put plainly: kinetics.
Where [2] appears, read: 25 °C (as for the free enzyme; inferred from the preceding sentence), µ = 0.1 (inferred from the preceding sentence), thrombin with small peptide substrate bound.
Where [3] appears, read: 25.0 ± 0.1 °C, thrombin reacting with NPMP.
[4] abbreviates: 25.0 ± 0.1 °C, thrombin reacting with PPACK (2.2 × 10^−9 M, [I] << Ki).
[5] abbreviates: 25.0 ± 0.1 °C, thrombin reacting with paraoxon.

Sequence of r-hirudin (recombinant hirudin, type 1 or type 2) (P01050 whole entry): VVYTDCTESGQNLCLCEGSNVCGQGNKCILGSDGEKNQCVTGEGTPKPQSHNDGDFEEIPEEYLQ

For the substance alpha-thrombin, the pKa, His57 of thrombin in series [1] was 7.1 pH units.
Turning to alpha-thrombin (Homo sapiens), the pKa is listed as 6.16 ± 0.25 in the series with His57 (setting [2]); 6.7 ± 0.3 in the series with His57 (25 °C, µ = 0.1, free thrombin); 8.0 ± 0.1 in the series with His57 (setting [3]); 7.3 ± 0.2 in the series with His57 (setting [4]); 7.8 ± 0.2 with His57 (setting [5]); 7.1 with His57 (thrombin binding r-hirudin). The pKa in the series with Nterm16 (setting [2]) is listed as 8.95 ± 0.41; in the series on Nterm16 (25 °C, µ = 0.1, free thrombin), 8.4 ± 0.4; with Nterm16 (setting [3]), 8.6 ± 0.2; in the series with Nterm16 (setting [4]) it was 8.8 ± 0.3; in the series with Nterm16 (setting [5]), 9.3 ± 0.3.
